Blank lines part the entries; values can stand above or below the binder they belong to.
Columns and labels:
[1] = molecular target: T1, human OX40 on cells (human, UniProt P43489 29-277); assay: flow cytometry (MFI) on Jurkat cells overexpressing OX40, antibody titration
T1 construct: whole, on cells; the cell is named under assay; also called hOX40; Jurkat-hOX40 cells
T1 sequence (looked up): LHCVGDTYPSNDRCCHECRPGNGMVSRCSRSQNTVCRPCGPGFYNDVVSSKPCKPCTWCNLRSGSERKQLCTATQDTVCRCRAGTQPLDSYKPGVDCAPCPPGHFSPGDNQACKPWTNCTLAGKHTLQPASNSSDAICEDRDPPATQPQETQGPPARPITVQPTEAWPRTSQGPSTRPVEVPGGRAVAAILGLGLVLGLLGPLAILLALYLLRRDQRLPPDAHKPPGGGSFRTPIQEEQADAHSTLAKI
Excerpt: (§1) Table 10 illustrates the CDRs of eight full antibodies containing these amino acid mutations, and the rest of the sequences are the same as those of antibody-F23-32K. […] The sequences of the anti-OX40 antibody (antibody M) are shown in Table 12; wherein, the expression cells used for the antibodies above (including antibody M) are CHO-S cells, and the method for preparing the antibody M-KF is as follows: the antibody M was identical to the antibody M-KF in terms of amino acid sequence and was expressed by the CHO cell line in which the fut8 gene was knocked out (the content of fucose in antibody M-KF was about 0%).

[2] = molecular target: T1, human OX40 on cells; assay: flow cytometry (MFI) on Jurkat cells overexpressing OX40, antibody titration; the unit nM comes from the legend paragraph 95
Excerpt: as §1

[3] = molecular target: T2, hOX40-his (human, UniProt P43489 29-216); assay: BIACORE, antibody on the probe, 20 nM OX40-his
T2 construct: range 1-216; Made in HEK293; The stated range starts at residue 1 (holds the signal peptide of the entry); no cleavage site stated; not shown: his tag
T2 sequence (looked up): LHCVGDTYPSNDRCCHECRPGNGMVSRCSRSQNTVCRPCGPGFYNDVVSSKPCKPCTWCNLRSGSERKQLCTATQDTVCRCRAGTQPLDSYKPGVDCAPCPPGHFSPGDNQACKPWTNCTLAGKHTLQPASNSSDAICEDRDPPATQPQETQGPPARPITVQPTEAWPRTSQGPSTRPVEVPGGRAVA
Excerpt: as §1

[4] = molecular target: T1, human OX40 on cells; assay: flow cytometry on Jurkat-hOX40 cells, 3-fold dilutions from 50 nM, MFI
Experimental: Antibody-F23-4k and antibody-F23-32k, as well as two control antibodies 11D4 and OX40mAb24 at different concentrations were used to incubate Jurkat-hOX40 cells.

[5] = molecular target: T3, cynomolgus monkey OX40 (cynomolgus monkey); assay: ELISA, OX40 coated at 2 µg/mL, antibody 2-fold dilutions
T3 chain: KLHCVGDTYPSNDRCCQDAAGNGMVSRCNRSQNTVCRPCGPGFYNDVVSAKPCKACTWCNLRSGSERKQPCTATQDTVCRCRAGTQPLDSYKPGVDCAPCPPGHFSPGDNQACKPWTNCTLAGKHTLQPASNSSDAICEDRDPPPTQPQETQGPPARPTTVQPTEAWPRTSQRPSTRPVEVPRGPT
Experimental: (§2) The binding capacities of the antibody M-KF for human and cynomolgus monkey OX40 were determined by ELISA. The test method is as follows: human or cynomolgus monkey OX40 was coated on a plate and incubated overnight at 4° C. at a concentration of 2 μg/mL, and then incubated with antibody M-KF at different concentrations for detection. The antibody M-KF was 2-fold diluted in gradient from an initial concentration of 1 μg/mL or 2 μg/mL.

[6] = molecular target: T1, human OX40 on cells; assay: cell-based or functional assay
[7] = molecular target: T4, human OX40 (coated on the plate, Example 8) (human, UniProt P43489 29-214); assay: ELISA, OX40 coated at 2 µg/mL, antibody 2-fold dilutions; human OX40, not cynomolgus monkey OX40
T4 sequence (looked up): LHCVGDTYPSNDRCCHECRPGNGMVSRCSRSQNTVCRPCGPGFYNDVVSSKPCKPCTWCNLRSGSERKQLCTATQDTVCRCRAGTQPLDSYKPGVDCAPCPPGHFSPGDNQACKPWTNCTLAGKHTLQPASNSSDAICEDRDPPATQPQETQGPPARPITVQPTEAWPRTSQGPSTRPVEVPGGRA
Experimental: as §2

[8] = molecular target: T5, hOX40-FC (human, UniProt P43489 29-216); assay: BLI (ForteBio), biotinylated antibody on SA sensor, OX40-Fc 50 nM bivalent, 1:1 model
T5 construct: range 1-216; Made in HEK293; The stated range 1-216 starts at residue 1, so it holds the signal peptide of the entry; also called human OX40 extracellular region fused to human IgG1-Fc; not shown: human IgG1-Fc, UniProt P01857, residues 104 to 330
T5 sequence (looked up): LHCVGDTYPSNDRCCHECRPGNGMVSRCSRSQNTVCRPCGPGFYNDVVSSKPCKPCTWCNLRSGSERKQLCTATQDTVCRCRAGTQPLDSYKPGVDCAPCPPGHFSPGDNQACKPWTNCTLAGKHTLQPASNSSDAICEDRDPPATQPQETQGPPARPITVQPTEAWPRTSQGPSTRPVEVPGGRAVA
Experimental: The ForteBio affinity assay was conducted according to the existing conventional method (Estep, P et al., MAbs, 2013, 5(2): 270-8). The brief process is as follows: the sensor was equilibrated offline in an assay buffer (such as PBS) for 20 min and then subjected to online test for 60 s to establish a signal baseline. The purified antibodies obtained as described above were each loaded online onto a corresponding sensor (ForteBio), and finally the ForteBio affinity assay was conducted. The biotinylated candidate antibodies were adsorbed with the SA sensor, and binding and dissociation of hOX40-FC were each detected for about 5 min. The results are shown in Table 4, and N.D indicates not detected in Table 4. Finally, kinetic analysis was performed for all by using a 1:1 binding model.

[9] = molecular target: T1, human OX40 on cells; assay: flow cytometry on Jurkat-hOX40 cells, 100 nM antibody, secondary antibody; parental Jurkat as control
Experimental: Jurkat cells overexpressing human OX40 (Jurkat-hOX40 cells) were generated by transfecting pCMV vectors with human OX40 cDNA. Jurkat-hOX40 cells (0.5×10⁶ cells) were incubated with 100 nM experimental antibody in PBS containing 0.1% BSA on ice for 40 min. The cells were then washed twice and incubated with the secondary antibody in PBS containing 0.1% BSA on ice for 25 min. The cells were washed twice and analyzed by flow cytometry on Accuri C6 system (BD Biosciences).

[10] = molecular target: T6, hCD27-FC (human, UniProt P26842 20-191, limits assumed); assay: ELISA, 10 ng antigen coated, HRP secondary antibody
T6 construct: not shown: Fc part
T6 sequence (looked up): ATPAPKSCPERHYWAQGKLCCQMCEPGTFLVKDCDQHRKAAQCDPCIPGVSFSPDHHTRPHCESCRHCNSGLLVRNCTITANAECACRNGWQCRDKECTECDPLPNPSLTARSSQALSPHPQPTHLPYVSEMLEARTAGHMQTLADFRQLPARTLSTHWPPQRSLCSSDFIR

[11] = molecular target: T7, mouse OX40-his (mouse, UniProt P47741 20-211); assay: as above
T7 construct: also called mOX40-his; not shown: his tag
T7 sequence (looked up): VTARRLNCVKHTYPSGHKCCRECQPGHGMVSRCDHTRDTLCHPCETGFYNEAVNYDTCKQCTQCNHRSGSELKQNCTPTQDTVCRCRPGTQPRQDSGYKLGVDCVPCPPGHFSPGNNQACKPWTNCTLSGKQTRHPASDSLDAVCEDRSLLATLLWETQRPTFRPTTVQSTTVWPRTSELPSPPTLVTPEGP

[12] = molecular target: T8, rhesus monkey OX40-his (rhesus monkey); assay: BLI (Fortebio), protein A sensor - antibody - OX40-his (100 nM)
T8 construct: also called Rh-OX40; Rh-OX40-his

- EC50 (read off the curve) [1]: ~1 nM
- EC50 [2]: 1.17 nM
- Kd [3]: 1.31 nM
- koff [3]: 0.000461 s⁻¹
- kon [3]: 353000 M⁻¹ s⁻¹
- EC50 [4]: 1.5 nM
B1: 11D4 (antibody, V domains shown)
VH: EVQLVESGGGLVQPGGSLRLSCAASGFTFSSYSMNWVRQAPGKGLEWVSYISSSSSTIDYADSVKGRFTISRDNAKNSLYLQMNSLRDEDTAVYYCARESGWYLFDYWGQGTLVTVSS
VL: DIQMTQSPSSLSASVGDRVTITCRASQGISSWLAWYQQKPEKAPKSLIYAASSLQSGVPSRFSGSGSGTDFTLTISSLQPEDFATYYCQQYNSYPPTFGGGTKVEIKR

- EC50 [5]: ~0.0352 ng/mL
- NFκB reporter in Jurkat-hOX40-NFκB-2 cells with Raji cells, activation peak against 11D4 [6]: ~2.5 fold
- EC50 (read off the curve) [1]: ~1 nM
- EC50 [7]: ~0.034 ng/mL
- EC50 [2]: 1.34 nM
B2: Antibody M-KF (antibody, human IgG1, kappa, V domains shown)
VH: QVQLVESGGGVVQPGESLRLSCAASGFTFSSYGMHWVRQAPGKGLEWVAVIWEDGSNQYYADSVKGRFTISRDNSKNTLYLQMNSLRAEDTAVYYCAKDNQDTSPDVGIDYWGQGTLVTVSS
VL: DIQMTQSPSSLSASVGDRVTITCRASQNISPFLNWYQQKPGKAPKLLIYAAVGLQSGVPSRFSGSGSGTDFTLTISSLQPEDFATYYCQQYTDYPLTFGGGTKVEIKR
modifications: fucose content about 0% (expressed in a CHO cell line with the fut8 gene knocked out)
- ADCC killing, fold against antibody M [6]: > 2 fold
- EC50 of ADCC killing, PBMC effector cells against Jurkat-hOX40 target cells (25:1) [6]: ~1.89 ng/mL

- Kd [8]: 0.6 nM
- EC50 [4]: 1.5 nM
B3: Antibody-F23-4k (antibody, human IgG1, kappa, V domains shown)
VH: QVQLEESGGGVVQPGESLRLSCAASGFTFSSYGMHWVRQAPGKGLEWVAVISYDGSNQYYADSVKGRFTISRDNSKNTLYLQMNSLRAEDTAVYYCAKDNQDSSPDVGIDYWGQGTLVTVSS
VL: DIVMTQSPSSLSASVGDRVTITCRASQDILGYVNWYQQKPGKAPILLIYATSGLQGGVPSRFSGSGSGTDFTLTISSLQPEDFATYYCQQYNSYPLTFGGGTKVDIKR
notes: also called antibody No. 4

- binding result [9]: binds
B4: Antibody-F10 (antibody, human IgG1, kappa, V domains shown)
VH: QVQLQESGGGLEKPGRSLRLSCAASGFTFSSYAMHWVRQAPGKGLEWVAVISYDGSNKYYADSVKGRFTISRDNSKNTLYLQMNSLRAEDTAVYYCARELGVYSGYDTPFDYWGQGTLVTVSS
VL: DIQMTQSPSSLSASVGDRITITCRASRDIRDDLAWYQQKPGGAPKLLIYAASTLQSGVPSRFSGSGSGTDFTLTISSLQPEDFATYYCLQDSDYPLTFGGGTKLEIKR
notes: also called antibody No. 1

- ELISA (OD value) [10]: 0.2 OD
- ELISA (OD value) [11]: 0.17 OD
- Kd [12]: 3 nM
- EC50 [4]: 5 nM
B5: OX40mAb24 (antibody, V domains shown)
VH: QVQLQESGPGLVKPSQTLSLTCAVYGGSFSSGYWNWIRKHPGKGLEYIGYISYNGITYHNPSLKSRITINRDTSKNQYSLQLNSVTPEDTAVYYCARYKYDYDGGHAMDYWGQGTLVTVSS
VL: DIQMTQSPSSLSASVGDRVTITCRASQDISNYLNWYQQKPGKAPKLLIYYTSKLHSGVPSRFSGSGSGTDYTLTISSLQPEDFATYYCQQGSALPWTFGQGTKVEIKR
